The data set has as its target RNAP sigma70 holoenzyme (Esigma70) (Escherichia coli) (UniProt P0A7Z4+P0A8V2+P0A8T7+P0A800+P00579). Description: KMnO4 footprinting. As to conditions: 40 mM Tris-HCl pH 8.0, 1 mM DTT, 0.1 mg/ml BSA, 10 mM MgCl2, 50 mM KCl, 37 C (transcription buffer); 150 nM Esigma70, sample mixed 1:1 with 20 mM KMnO4 for ….

As for “ATCGCCAGCGCGCGATGATGTTCCGAAGACTATAAGGCATGTTATAGTCTGGATTATATTGAGGCAAGTCACCCTCCCATTTATTCAGAGTAAAAGTCTATTCTGTGATAAATGGC (double strand) [minC promoter (G1d) permanganate template]”, the binding result is “binds”.
The value for “ACCTCGGTATGCCTTGTGACTGGCTTGACAAGCTTTTCCTCAGCTCCGTAAACTCCTTTCAGTGGGAAATTGTGGGGCAAAGTGGGAATAAGGGGTGAGGCTGGCATGTTCCGGGGAGCAA (double strand) [mraZ promoter (G1p) permanganate template]” was “binds”.

For the origin of these results see PMC7876045.
